PMC11662938, “Single-molecule visualization of sequence-specific RNA binding by a designer PPR protein”

Tests used:
dPPR10 [1] = biological target: T1, dPPR10 (synthetic construct (designed consensus …)); assay: MST; Fig S4D legend value, conflicts with 4 nM in text; legend says labelled dPPR10; SPR: 30 mM Tris pH 7.6, 40 mM KCl, 5 mM MgCl2, 0.5 mM DTT, 0.25 mM EDTA, 0.01% P20, 20 C; ensemble FRET and MST: 100 mM Tris-HCl pH 8.0, 100 mM KCl; smFRET buffer not in material; settings: protein: recombinant; tags: Trx-His6-TEV (pETM20) cleaved; GAM remnant; label: 5' 6-FAM (FITC in Results)
T1 chain: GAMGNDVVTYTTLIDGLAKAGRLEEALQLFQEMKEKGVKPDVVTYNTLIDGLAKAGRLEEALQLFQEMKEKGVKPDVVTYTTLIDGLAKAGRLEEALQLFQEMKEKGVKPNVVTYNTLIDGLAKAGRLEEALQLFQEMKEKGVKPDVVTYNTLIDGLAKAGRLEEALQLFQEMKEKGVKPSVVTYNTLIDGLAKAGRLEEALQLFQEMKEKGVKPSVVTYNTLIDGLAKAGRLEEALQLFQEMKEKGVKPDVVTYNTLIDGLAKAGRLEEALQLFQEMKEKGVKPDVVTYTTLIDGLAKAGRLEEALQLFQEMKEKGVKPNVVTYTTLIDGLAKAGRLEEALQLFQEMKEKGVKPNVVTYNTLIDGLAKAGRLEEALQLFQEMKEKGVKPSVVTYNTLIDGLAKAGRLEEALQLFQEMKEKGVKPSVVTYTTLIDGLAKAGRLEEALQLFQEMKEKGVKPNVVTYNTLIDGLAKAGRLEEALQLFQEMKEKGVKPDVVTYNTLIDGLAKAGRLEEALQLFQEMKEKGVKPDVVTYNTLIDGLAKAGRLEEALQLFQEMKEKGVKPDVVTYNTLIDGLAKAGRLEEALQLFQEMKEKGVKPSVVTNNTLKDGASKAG

dPPR10 [2] = biological target: T1, dPPR10; assay: MST; Results value; Fig S4D legend gives 9.7 nM; SPR: 30 mM Tris pH 7.6, 40 mM KCl, 5 mM MgCl2, 0.5 mM DTT, 0.25 mM EDTA, 0.01% P20, 20 C; ensemble FRET and MST: 100 mM Tris-HCl pH 8.0, 100 mM KCl; smFRET buffer not in material; settings: protein: recombinant; tags: Trx-His6-TEV (pETM20) cleaved; GAM remnant; label: 5' 6-FAM (FITC in Results)
dPPR10-C2 [3] = biological target: T2, dPPR10-C2 (synthetic construct (designed consensus …, Q96C;Q376C)); assay: smFRET; 1 uM RNA; mean binding time 41.3 s vs 10.6 s cognate; SPR: 30 mM Tris pH 7.6, 40 mM KCl, 5 mM MgCl2, 0.5 mM DTT, 0.25 mM EDTA, 0.01% P20, 20 C; ensemble FRET and MST: 100 mM Tris-HCl pH 8.0, 100 mM KCl; smFRET buffer not in material; settings: protein: recombinant; tags: N-terminal Avi-tag, biotinylated; Cy3/AF647 maleimide on Cys for FRET; 5' extension, predicted secondary structure
T2 chain: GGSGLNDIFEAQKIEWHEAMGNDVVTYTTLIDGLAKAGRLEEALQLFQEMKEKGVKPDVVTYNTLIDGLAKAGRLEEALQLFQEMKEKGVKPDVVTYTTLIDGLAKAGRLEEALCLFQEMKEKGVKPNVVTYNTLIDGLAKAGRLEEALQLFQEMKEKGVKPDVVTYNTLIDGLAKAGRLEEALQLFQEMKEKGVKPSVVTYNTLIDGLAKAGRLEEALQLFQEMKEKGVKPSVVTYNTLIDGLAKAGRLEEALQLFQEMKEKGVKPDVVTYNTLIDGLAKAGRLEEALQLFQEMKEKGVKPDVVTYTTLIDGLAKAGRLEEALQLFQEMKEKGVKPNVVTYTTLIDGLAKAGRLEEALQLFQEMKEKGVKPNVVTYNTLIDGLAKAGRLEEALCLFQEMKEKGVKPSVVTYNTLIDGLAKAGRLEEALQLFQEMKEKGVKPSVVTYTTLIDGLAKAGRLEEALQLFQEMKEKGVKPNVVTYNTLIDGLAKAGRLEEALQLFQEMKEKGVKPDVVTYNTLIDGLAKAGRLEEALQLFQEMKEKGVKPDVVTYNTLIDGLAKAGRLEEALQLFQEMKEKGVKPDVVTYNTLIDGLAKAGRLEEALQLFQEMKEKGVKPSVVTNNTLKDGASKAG

dPPR10-C2 [4] = biological target: T2, dPPR10-C2; assay: smFRET; 1 uM RNA; rare transitions; SPR: 30 mM Tris pH 7.6, 40 mM KCl, 5 mM MgCl2, 0.5 mM DTT, 0.25 mM EDTA, 0.01% P20, 20 C; ensemble FRET and MST: 100 mM Tris-HCl pH 8.0, 100 mM KCl; smFRET buffer not in material; settings: protein: recombinant; tags: N-terminal Avi-tag, biotinylated; Cy3/AF647 maleimide on Cys for FRET
dPPR10-C2 [5] = biological target: T2, dPPR10-C2; assay: smFRET; 1 uM RNA; SPR: 30 mM Tris pH 7.6, 40 mM KCl, 5 mM MgCl2, 0.5 mM DTT, 0.25 mM EDTA, 0.01% P20, 20 C; ensemble FRET and MST: 100 mM Tris-HCl pH 8.0, 100 mM KCl; smFRET buffer not in material; settings: protein: recombinant; tags: N-terminal Avi-tag, biotinylated; Cy3/AF647 maleimide on Cys for FRET
dPPR10-C2 [6] = biological target: T2, dPPR10-C2; assay: smFRET; 1 uM RNA; mean binding time 30.0 s; SPR: 30 mM Tris pH 7.6, 40 mM KCl, 5 mM MgCl2, 0.5 mM DTT, 0.25 mM EDTA, 0.01% P20, 20 C; ensemble FRET and MST: 100 mM Tris-HCl pH 8.0, 100 mM KCl; smFRET buffer not in material; settings: protein: recombinant; tags: N-terminal Avi-tag, biotinylated; Cy3/AF647 maleimide on Cys for FRET; no predicted secondary structure
dPPR10-C2 [7] = biological target: T2, dPPR10-C2; assay: smFRET; 1 uM RNA; mean binding time 43.4 s; SPR: 30 mM Tris pH 7.6, 40 mM KCl, 5 mM MgCl2, 0.5 mM DTT, 0.25 mM EDTA, 0.01% P20, 20 C; ensemble FRET and MST: 100 mM Tris-HCl pH 8.0, 100 mM KCl; smFRET buffer not in material; settings: protein: recombinant; tags: N-terminal Avi-tag, biotinylated; Cy3/AF647 maleimide on Cys for FRET; 3' extension, predicted secondary structure
dPPR10-C2 [8] = biological target: T2, dPPR10-C2; assay: ensemble FRET; SPR: 30 mM Tris pH 7.6, 40 mM KCl, 5 mM MgCl2, 0.5 mM DTT, 0.25 mM EDTA, 0.01% P20, 20 C; ensemble FRET and MST: 100 mM Tris-HCl pH 8.0, 100 mM KCl; smFRET buffer not in material; settings: protein: recombinant; tags: N-terminal Avi-tag, biotinylated; Cy3/AF647 maleimide on Cys for FRET
dPPR10-C2 [9] = biological target: T2, dPPR10-C2; assay: competition; 100-fold excess over RNAcognate; smFRET; SPR: 30 mM Tris pH 7.6, 40 mM KCl, 5 mM MgCl2, 0.5 mM DTT, 0.25 mM EDTA, 0.01% P20, 20 C; ensemble FRET and MST: 100 mM Tris-HCl pH 8.0, 100 mM KCl; smFRET buffer not in material; settings: protein: recombinant; tags: N-terminal Avi-tag, biotinylated; Cy3/AF647 maleimide on Cys for FRET
dPPR10 [10] = biological target: T1, dPPR10; assay: MST; SPR: 30 mM Tris pH 7.6, 40 mM KCl, 5 mM MgCl2, 0.5 mM DTT, 0.25 mM EDTA, 0.01% P20, 20 C; ensemble FRET and MST: 100 mM Tris-HCl pH 8.0, 100 mM KCl; smFRET buffer not in material; settings: protein: recombinant; tags: Trx-His6-TEV (pETM20) cleaved; GAM remnant; label: 5' 6-FAM

UGUAUCCUUAACCAUUUCU (ssRNA) [RNAcognate 5'-FAM]
Kd (dPPR10 [1]): 9.7 ± 1.8 nM | Kd (dPPR10 [2]): 4 nM

CACAGGAACCGGCAAAGUGUAUCCUUAACCAUUUCU (ssRNA) [RNA5'-OH]
binding result (dPPR10-C2 [3]): binds

UGUAUCCUAUACCAUUUCU (ssRNA) [RNA U9A,A10U]
binding result (dPPR10-C2 [4]): no binding

CCAUUUCU (ssRNA) [RNA12-19]
binding result (dPPR10-C2 [5]): no binding

UGUAUCCUUAAC (ssRNA) [RNA1-12]
binding result (dPPR10-C2 [5]): binds

B1: RNAdual-OH (delta2) (ssRNA)
RNA: CAUUCCAACCCCCAAAGUGUAUCCUUAACCAUUUCUCUCACCAACCCCCAAAG
binding result (dPPR10-C2 [6]): binds

UGUAUCCUUAACCAUUUCUCACAGGAACCGGCAAAG (ssRNA) [RNA3'-OH]
binding result (dPPR10-C2 [7]): binds

UGUAUCCUUAACCAUUUCU (ssRNA) [RNAcognate]
Kd (dPPR10-C2 [8]): 1.2 ± 0.2 nM

UCACAGGAACCGGCAAAGU (ssRNA) [RNAanti-cognate]
binding result (dPPR10-C2 [9]): no binding

UCACAGGAACCGGCAAAGU (ssRNA) [RNAanti-cognate 5'-FAM]
binding result (dPPR10 [10]): no binding

UGUAUCCUUA (ssRNA) [RNA1-10]
binding result (dPPR10-C2 [5]): no binding
